Source: patent US20170190778A1

Assays:
[1] = molecular target: TGFβ receptor II (TGFβRII) on IMR90 human lung fibroblasts (human) (UniProt P37173); assay: cell-based or functional assay
[2] = molecular target: TGFβ receptor on mink lung epithelial cells (MLEC-TGFβ, PAI-1 promoter luciferase reporter) (mink); assay: cell-based or functional assay

TGFβ receptor II (TGFβRII) on IMR90 human lung fibroblasts (human), sequence (P37173 23-567): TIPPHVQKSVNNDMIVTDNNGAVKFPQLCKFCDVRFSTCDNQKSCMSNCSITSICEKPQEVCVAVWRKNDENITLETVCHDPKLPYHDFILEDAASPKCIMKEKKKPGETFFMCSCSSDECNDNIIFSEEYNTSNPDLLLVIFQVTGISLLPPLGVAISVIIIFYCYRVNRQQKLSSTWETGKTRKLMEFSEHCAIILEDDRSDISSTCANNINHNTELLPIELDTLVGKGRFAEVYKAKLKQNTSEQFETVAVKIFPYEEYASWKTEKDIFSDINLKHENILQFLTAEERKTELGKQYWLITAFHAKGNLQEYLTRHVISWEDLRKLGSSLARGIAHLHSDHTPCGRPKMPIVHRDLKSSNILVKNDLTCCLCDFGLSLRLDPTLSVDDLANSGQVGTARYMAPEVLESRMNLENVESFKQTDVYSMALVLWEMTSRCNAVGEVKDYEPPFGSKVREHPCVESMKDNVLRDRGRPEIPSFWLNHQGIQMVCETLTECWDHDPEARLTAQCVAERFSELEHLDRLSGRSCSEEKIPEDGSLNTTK

## C-terminal discoidin and carboxypeptidase domains of mouse ACLP (amino acids 374-1128, C-terminal myc-His tag) (from UniProt Q640N1 374-1128)
[1]
  SMA and collagen protein expression in IMR90 cells (48 h): 30 nM
[2]
  luciferase activity (PAI-1 promoter reporter in MLEC cells): 25 µg/mL

## N-terminal Tsp repeat domain of mouse ACLP (amino acids 26-373, C-terminal myc-His tag) (from UniProt Q640N1 26-373) (ligand)
[1]
  Smad3 phosphorylation in IMR90 cells (Western blot, 30 min): 30 nM
[2]
  luciferase activity (PAI-1 promoter reporter in MLEC cells): 5 µg/mL
